The source of these data is article PMC7463553, “Thiol Redox Regulation of Plant β-Carbonic Anhydrase” (Biomolecules, 2020).

This series concerns the molecule itself. As to the kind of experiment: dynamic light scattering; 320 µM βCA1 after addition of 20 mM DTT or in the presence of 500 µM H2O2; 50 mM Na-phosphate pH 8; 25 °C; intensity converted to volume percentage.

B1: β-carbonic anhydrase 1 (βCA1) from Arabidopsis thaliana (enzyme, UniProt P27140 114-347, looked up)
chain: ALQTGTSSDKKAFDPVETIKQGFIKFKKEKYETNPALYGELAKGQSPKYMVFACSDSRVCPSHVLDFQPGDAFVVRNIANMVPPFDKVKYGGVGAAIEYAVLHLKVENIVVIGHSACGGIKGLMSFPLDGNNSTDFIEDWVKICLPAKSKVISELGDSAFEDQCGRCEREAVNVSLANLLTYPFVREGLVKGTLALKGGYYDFVKGAFELWGLEFGLSETSSVKDVATILHWKL
notes: β-carbonic anhydrase 1 (βCA1, βCA1.1), Arabidopsis thaliana, UniProt P27140, At3g01500; The protein was analysed both reduced (DTT) and oxidised (H2O2); also called βCA1.1; chloroplast βCA; source: E. coli NiCo21 (DE3), purified (passage through a chitin column, Ni-NTA beads, dialysis)
As for B1, the “stoichiometry N” value is 2.

The stoichiometry N is a count of units in the complex or per binding partner.
